Data as given in patent US20220298223A1 (KING S COLLEGE LONDON, published 2022).
Numbering of substitutions follows the chain as printed.

T1: human CD19 expressed on LO68 tumor cells (human, UniProt P15391 20-556)
T1 construct: whole, on cells; also called CD19+ LO68 tumor cells; CD19-engineered LO68 tumor cells
T1 sequence (looked up): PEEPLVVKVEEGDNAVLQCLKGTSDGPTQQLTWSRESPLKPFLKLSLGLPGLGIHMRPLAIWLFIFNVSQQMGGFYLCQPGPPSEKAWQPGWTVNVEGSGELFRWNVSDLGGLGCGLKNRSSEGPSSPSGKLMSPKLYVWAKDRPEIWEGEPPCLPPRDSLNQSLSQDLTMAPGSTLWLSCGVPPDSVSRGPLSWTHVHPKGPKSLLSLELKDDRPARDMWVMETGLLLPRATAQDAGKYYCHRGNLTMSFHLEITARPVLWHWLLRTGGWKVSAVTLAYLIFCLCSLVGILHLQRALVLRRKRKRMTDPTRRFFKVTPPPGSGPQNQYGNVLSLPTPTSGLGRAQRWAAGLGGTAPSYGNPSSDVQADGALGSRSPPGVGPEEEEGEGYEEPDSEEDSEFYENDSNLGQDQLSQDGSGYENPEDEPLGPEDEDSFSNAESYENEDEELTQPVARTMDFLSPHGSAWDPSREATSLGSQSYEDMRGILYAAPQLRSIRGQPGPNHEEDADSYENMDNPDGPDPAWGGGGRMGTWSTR

B1: G02 second generation CAR (F-2 with the second glycine of FMC63 VH CDR3 substituted by alanine), expressed on human T cells (other)
chain: DIQMTQTTSSLSASLGDRVTISCRASQDISKYLNWYQQKPDGTVKLLIYHTSRLHSGVPSRFSGSGSGTDYSLTISNLEQEDIATYFCQQGNTLPYTFGGGTKLEITGGGGSGGGGSGGGGSEVKLQESGPGLVAPSQSLSVTCTVSGVSLPDYGVSWIRQPPRKGLEWLGVIWGSETTYYNSALKSRLTIIKDNSKSQVFLKMNSLQTDDTAIYYCAKHYYYGASYAMDYWGQGTSVTVSSAAAIEVEQKLISEEDLLDNEKSNGTIIHVKGKHLCPSPLFPGPSKPFWVLVVVGGVLACYSLLVTVAFIIFWVRSKRSRLLHSDYMNMTPRRPGPTRKHYQPYAPPRDFAAYRSRVKFSRSADAPAYQQGQNQLYNELNLGRREEYDVLDKRRGRDPEMGGKPRRKNPQEGLYNELQKDKMAEAYSEIGMKGERRRGKGHDGLYQGLSTATKDTYDALHMQALPPR
notes: CAR on transduced human T cells; also called FMC63(G02)
B2: Y01 second generation CAR (F-2 with the first tyrosine of FMC63 VH CDR3 substituted by alanine), expressed on human T cells (other)
chain: B1 chain with Y221A, A225G
notes: CAR on transduced human T cells; also called FMC63(Y01)
B3: Y03 second generation CAR (F-2 with the third tyrosine of FMC63 VH CDR3 substituted by alanine), expressed on human T cells (other)
chain: B1 chain with Y223A, A225G
notes: CAR on transduced human T cells; also called FMC63(Y03)
B4: Y04 second generation CAR (F-2 with the fourth tyrosine of FMC63 VH CDR3 substituted by alanine), expressed on human T cells (other)
chain: B1 chain with A225G, Y227A
notes: CAR on transduced human T cells; also called FMC63(Y04)

Target: T1, human CD19 expressed on LO68 tumor cells
Assay: z-Movi microfluidic chip, CAR T cells on a monolayer of CD19+ LO68 tumor cells, force ramp, percent bound T cells
Procedure: CD19-engineered LO68 tumor cells were seeded in a z-Movi microfluidic chip and cultured for 16 hours. The next day, flow sorted CAR-T cells were serially flowed in the chips and incubated with the target cells for 5 minutes prior to initializing a 3-minute linear force ramp. Cell detachment was determined using post-experiment using image analysis techniques.
Increasing fluidic force was applied and the percentage of bound T-cells was determined (median, n=3). […] Data are presented as median rForce which is the relative force required to elicit cell detachment, calibrated to […] polystyrene beads. Since data were not normally distributed, they are presented as median rForce which is the relative force required to elicit cell detachment and calibrated to […] polystyrene beads. […] Data shown are mean±standard error (n=11 runs, 3 independent donors). […] For clarity, a single representative run for one healthy donor is plotted in which each dot represents a single cell.

Binder | binding result
B1 | binds
B2 | binds
B3 | binds
B4 | binds
